Laboratory results published in the supplement of paper PMC10567573.

B1: COX4I1 (parent)
chain: VAHVKHLSASQKALKEKEKASWSS

Variants of: B1
Experiment: protein stability index of a GFP-peptide fusion (GPS, HEK-293T) (PSI 1-6); higher = more stable
Settings: c terminus: a fixed tail appended
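Note: lentivirally expressed fusions sorted by FACS into six bins by GFP to DsRed ratio, PSI derived from sequencing read proportions per bin multiplied by bin number.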

**Q.** For VAHVKHLSASQKALHEKEKASWSS [K15H], which protein stability index is on record?
**A.** 3.85

**Q.** Which protein stability index does the source give for VAHVKHLSASQKALFEKEKASWSS [K15F] here?
**A.** 3.21

**Q.** Which protein stability index does the source give for VAHVKHLSASQKALAEKEKASWSS [K15A] here?
**A.** 3.78

**Q.** For VAHVKHLSASQKALVEKEKASWSS [K15V], which protein stability index is on record?
**A.** 3.2

**Q.** For VAHVKHLSASQKALSEKEKASWSS [K15S], which protein stability index is on record?
**A.** 4.04

**Q.** With VAHVKHLSASQKALMEKEKASWSS [K15M] as the variant, how does the protein stability index read?
**A.** 3.94

**Q.** Which protein stability index does the source give for VAHVKHLSASQKALEEKEKASWSS [K15E] here?
**A.** 4.08

**Q.** With VAHVKHLSASQKALLEKEKASWSS [K15L] as the variant, how does the protein stability index read?
**A.** 3.29

**Q.** With VAHVKHLSASQKALNEKEKASWSS [K15N] as the variant, how does the protein stability index read?
**A.** 3.77

**Q.** With VAHVKHLSASQKALGEKEKASWSS [K15G] as the variant, how does the protein stability index read?
**A.** 3.18

**Q.** Which protein stability index does the source give for VAHVKHLSASQKALWEKEKASWSS [K15W] here?
**A.** 2.77

**Q.** With VAHVKHLSASQKALREKEKASWSS [K15R] as the variant, how does the protein stability index read?
**A.** 3.33

**Q.** With VAHVKHLSASQKALPEKEKASWSS [K15P] as the variant, how does the protein stability index read?
**A.** 2.99

**Q.** With VAHVKHLSASQKALCEKEKASWSS [K15C] as the variant, how does the protein stability index read?
**A.** 3.21

**Q.** For VAHVKHLSASQKALIEKEKASWSS [K15I], which protein stability index is on record?
**A.** 3.82

**Q.** For VAHVKHLSASQKALYEKEKASWSS [K15Y], which protein stability index is on record?
**A.** 3

**Q.** Which protein stability index does the source give for VAHVKHLSASQKALTEKEKASWSS [K15T] here?
**A.** 3.48

**Q.** With VAHVKHLSASQKALQEKEKASWSS [K15Q] as the variant, how does the protein stability index read?
**A.** 3.5

**Q.** For VAHVKHLSASQKALDEKEKASWSS [K15D], which protein stability index is on record?
**A.** 3.96

**Q.** For VAHVKHLSASQKALKEPEKASWSS [K17P], which protein stability index is on record?
**A.** 3.32

**Q.** With VAHVKHLSASQKALKEMEKASWSS [K17M] as the variant, how does the protein stability index read?
**A.** 3.01

**Q.** Which protein stability index does the source give for VAHVKHLSASQKALKEFEKASWSS [K17F] here?
**A.** 3.31

**Q.** With VAHVKHLSASQKALKECEKASWSS [K17C] as the variant, how does the protein stability index read?
**A.** 2.83

**Q.** With VAHVKHLSASQKALKEAEKASWSS [K17A] as the variant, how does the protein stability index read?
**A.** 3.62

**Q.** Which protein stability index does the source give for VAHVKHLSASQKALKELEKASWSS [K17L] here?
**A.** 2.71

**Q.** Which protein stability index does the source give for VAHVKHLSASQKALKEVEKASWSS [K17V] here?
**A.** 2.95

**Q.** Which protein stability index does the source give for VAHVKHLSASQKALKENEKASWSS [K17N] here?
**A.** 3.81

**Q.** With VAHVKHLSASQKALKETEKASWSS [K17T] as the variant, how does the protein stability index read?
**A.** 3.21

**Q.** Which protein stability index does the source give for VAHVKHLSASQKALKEREKASWSS [K17R] here?
**A.** 3.49

**Q.** With VAHVKHLSASQKALKEDEKASWSS [K17D] as the variant, how does the protein stability index read?
**A.** 3.92

**Q.** With VAHVKHLSASQKALKEYEKASWSS [K17Y] as the variant, how does the protein stability index read?
**A.** 3.06

**Q.** For VAHVKHLSASQKALKEHEKASWSS [K17H], which protein stability index is on record?
**A.** 3.26

**Q.** For VAHVKHLSASQKALKEWEKASWSS [K17W], which protein stability index is on record?
**A.** 2.35

**Q.** With VAHVKHLSASQKALKESEKASWSS [K17S] as the variant, how does the protein stability index read?
**A.** 3.23

**Q.** Which protein stability index does the source give for VAHVKHLSASQKALKEEEKASWSS [K17E] here?
**A.** 3.9

**Q.** Which protein stability index does the source give for VAHVKHLSASQKALKEQEKASWSS [K17Q] here?
**A.** 3.53

**Q.** For VAHVKHLSASQKALKEIEKASWSS [K17I], which protein stability index is on record?
**A.** 2.83

**Q.** Which protein stability index does the source give for VAHVKHLSASQKALKEGEKASWSS [K17G] here?
**A.** 3.86

**Q.** With VAHVKHLSASQKALKEKEKASWHS [S23H] as the variant, how does the protein stability index read?
**A.** 3.68

**Q.** With VAHVKHLSASQKALKEKEKASWFS [S23F] as the variant, how does the protein stability index read?
**A.** 3.65

**Q.** With VAHVKHLSASQKALKEKEKASWAS [S23A] as the variant, how does the protein stability index read?
**A.** 1.82

**Q.** For VAHVKHLSASQKALKEKEKASWES [S23E], which protein stability index is on record?
**A.** 3.26

**Q.** For VAHVKHLSASQKALKEKEKASWCS [S23C], which protein stability index is on record?
**A.** 2.22

**Q.** With VAHVKHLSASQKALKEKEKASWDS [S23D] as the variant, how does the protein stability index read?
**A.** 4.4

**Q.** With VAHVKHLSASQKALKEKEKASWGS [S23G] as the variant, how does the protein stability index read?
**A.** 4.07

**Q.** With VAHVKHLSASQKATKEKEKASWSS [L14T] as the variant, how does the protein stability index read?
**A.** 2.89

**Q.** Which protein stability index does the source give for VAHVKHLSASQKAVKEKEKASWSS [L14V] here?
**A.** 3.38

**Q.** For VAHVKHLSASQKADKEKEKASWSS [L14D], which protein stability index is on record?
**A.** 3.92

**Q.** For VAHVKHLSASQKARKEKEKASWSS [L14R], which protein stability index is on record?
**A.** 3.7

**Q.** With VAHVKHLSASQKAYKEKEKASWSS [L14Y] as the variant, how does the protein stability index read?
**A.** 3.09

**Q.** Which protein stability index does the source give for VAHVKHLSASQKAQKEKEKASWSS [L14Q] here?
**A.** 3.48

**Q.** For VAHVKHLSASQKAMKEKEKASWSS [L14M], which protein stability index is on record?
**A.** 3.62

**Q.** For VAHVKHLSASQKAKKEKEKASWSS [L14K], which protein stability index is on record?
**A.** 3.65

**Q.** Which protein stability index does the source give for VAHVKHLSASQKAGKEKEKASWSS [L14G] here?
**A.** 3.1

**Q.** Which protein stability index does the source give for VAHVKHLSASQKAFKEKEKASWSS [L14F] here?
**A.** 2.88

**Q.** For VAHVKHLSASQKANKEKEKASWSS [L14N], which protein stability index is on record?
**A.** 3.98

**Q.** With VAHVKHLSASQKAWKEKEKASWSS [L14W] as the variant, how does the protein stability index read?
**A.** 3.2

**Q.** Which protein stability index does the source give for VAHVKHLSASQKAIKEKEKASWSS [L14I] here?
**A.** 3.46

**Q.** Which protein stability index does the source give for VAHVKHLSASQKASKEKEKASWSS [L14S] here?
**A.** 3.05

**Q.** Which protein stability index does the source give for VAHVKHLSASQKAEKEKEKASWSS [L14E] here?
**A.** 3.54

**Q.** For VAHVKHLSASQKACKEKEKASWSS [L14C], which protein stability index is on record?
**A.** 3.12

**Q.** Which protein stability index does the source give for VAHVKHLSASQKAAKEKEKASWSS [L14A] here?
**A.** 3.2

**Q.** With VAHVKHLSASQKAHKEKEKASWSS [L14H] as the variant, how does the protein stability index read?
**A.** 3.61

**Q.** For VAHVKHLSASQKAPKEKEKASWSS [L14P], which protein stability index is on record?
**A.** 3.41

**Q.** With VAHVKHLSASQKALKEKEKAPWSS [S21P] as the variant, how does the protein stability index read?
**A.** 3.73

**Q.** With VAHVKHLSASQKALKEKEKAQWSS [S21Q] as the variant, how does the protein stability index read?
**A.** 4.07

**Q.** With VAHVKHLSASQKALKEKEKAWWSS [S21W] as the variant, how does the protein stability index read?
**A.** 3.24

**Q.** For VAHVKHLSASQKALKEKEKALWSS [S21L], which protein stability index is on record?
**A.** 3.16

**Q.** With VAHVKHLSASQKALKEKEKANWSS [S21N] as the variant, how does the protein stability index read?
**A.** 3.75

**Q.** For VAHVKHLSASQKALKEKEKAVWSS [S21V], which protein stability index is on record?
**A.** 3.96

**Q.** For VAHVKHLSASQKALKEKEKAAWSS [S21A], which protein stability index is on record?
**A.** 3.98

**Q.** For VAHVKHLSASQKALKEKEKARWSS [S21R], which protein stability index is on record?
**A.** 3.49

**Q.** Which protein stability index does the source give for VAHVKHLSASQKALKEKEKAMWSS [S21M] here?
**A.** 3.39

**Q.** Which protein stability index does the source give for VAHVKHLSASQKALKEKEKAKWSS [S21K] here?
**A.** 3.47

**Q.** For VAHVKHLSASQKALKEKEKAEWSS [S21E], which protein stability index is on record?
**A.** 4.42

**Q.** With VAHVKHLSASQKALKEKEKADWSS [S21D] as the variant, how does the protein stability index read?
**A.** 4.18

**Q.** With VAHVKHLSASQKALKEKEKAHWSS [S21H] as the variant, how does the protein stability index read?
**A.** 3.46

**Q.** Which protein stability index does the source give for VAHVKHLSASQKALKEKEKAGWSS [S21G] here?
**A.** 3.6

**Q.** For VAHVKHLSASQKALKEKEKAIWSS [S21I], which protein stability index is on record?
**A.** 3.68

**Q.** For VAHVKHLSASQKALKEKEKAFWSS [S21F], which protein stability index is on record?
**A.** 3.72

**Q.** Which protein stability index does the source give for VAHVKHLSASQKALKEKEKACWSS [S21C] here?
**A.** 3.74

**Q.** Which protein stability index does the source give for VAHVKHLSASQKALKEKEKAYWSS [S21Y] here?
**A.** 3.32

**Q.** For VAHVKHLSASQKALKEKEKATWSS [S21T], which protein stability index is on record?
**A.** 3.32

**Q.** For VAHVKHLSASQKALKEKKKASWSS [E18K], which protein stability index is on record?
**A.** 2.92

**Q.** For VAHVKHLSASQKALKEKVKASWSS [E18V], which protein stability index is on record?
**A.** 2.59

**Q.** With VAHVKHLSASQKALKEKYKASWSS [E18Y] as the variant, how does the protein stability index read?
**A.** 2.67

**Q.** With VAHVKHLSASQKALKEKNKASWSS [E18N] as the variant, how does the protein stability index read?
**A.** 2.98

**Q.** With VAHVKHLSASQKALKEKFKASWSS [E18F] as the variant, how does the protein stability index read?
**A.** 2.51

**Q.** Which protein stability index does the source give for VAHVKHLSASQKALKEKWKASWSS [E18W] here?
**A.** 2.69

**Q.** For VAHVKHLSASQKALKEKQKASWSS [E18Q], which protein stability index is on record?
**A.** 4.05

**Q.** For VAHVKHLSASQKALKEKAKASWSS [E18A], which protein stability index is on record?
**A.** 2.92

**Q.** With VAHVKHLSASQKALKEKSKASWSS [E18S] as the variant, how does the protein stability index read?
**A.** 3.02

**Q.** For VAHVKHLSASQKALKEKIKASWSS [E18I], which protein stability index is on record?
**A.** 3.15

**Q.** Which protein stability index does the source give for VAHVKHLSASQKALKEKTKASWSS [E18T] here?
**A.** 2.87
